T1: cynomolgus galectin-10-His, WGS isoform (cynomolgus)
T1 construct: also called cynoGal10-WGS; not shown: His tag
T1 chain: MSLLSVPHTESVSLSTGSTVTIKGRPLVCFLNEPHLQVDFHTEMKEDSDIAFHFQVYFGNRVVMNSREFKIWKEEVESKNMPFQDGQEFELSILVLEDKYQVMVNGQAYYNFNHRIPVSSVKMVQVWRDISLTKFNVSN

T2: human galectin-10-His (human)
T2 construct: The last M of the tag may be Met1 of galectin-10; also called humanGal10-His; hGal10
T2 chain: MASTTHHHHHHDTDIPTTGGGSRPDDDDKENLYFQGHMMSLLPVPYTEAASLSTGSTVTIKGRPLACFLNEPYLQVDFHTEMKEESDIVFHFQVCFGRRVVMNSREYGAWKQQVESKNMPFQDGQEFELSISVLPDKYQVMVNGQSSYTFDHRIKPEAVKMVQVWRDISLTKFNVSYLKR

T3: recombinant human galectin-10, TEV-cleaved (human, UniProt Q05315 1-142)
T3 sequence: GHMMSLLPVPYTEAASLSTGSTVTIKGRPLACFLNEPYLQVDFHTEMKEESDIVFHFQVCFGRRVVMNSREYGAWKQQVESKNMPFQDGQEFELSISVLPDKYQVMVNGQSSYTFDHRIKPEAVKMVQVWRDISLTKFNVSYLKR

T4: cynomolgus galectin-10-His, YRT isoform (cynomolgus)
T4 construct: also called cynoGal10-YRT; not shown: His tag
T4 chain: T1 chain with K23E, G24A, L31F, F69Y, K70R, I71T, S92R

B1: 8H11 mouse IgG1 (antibody, V domains shown)
VH: ELQLVESGGGLVQPGGSLRLSCAASGFTFSTNYMNWVRQAPGKGLEWVSGITSGGGRTYYADSVKGRFTISRDNAKNTLYLQMNSLKPEDTALYYCARTDHAWLDAWGQGTLVTVSS
VL: QAGLTQPPSVSGTLGKTVTISCAGTSSDVGYGNYVSWYQQLPGTAPKLLIYAVSTRASGIPDRFSGSKSGNTASLTISGLLSEDEADYYCASYRSSNNYVFGGGTKLTVL
notes: VH and VL cloned in frame with mouse IgG1 constant domains; also called 8H11 mIgG1
B2: 11F02 mouse IgG1 (antibody, V domains shown)
VH: B1 VH with L4V, G54H, G56A, A75S, W103S
VL: QTVVTQEPSLSVSPGGTVTLTCGLSSGSVTSSNYPGWYQQKPGQAPRTLIYNTNSRYSGVPNRFSGSISGNKAALTITGAQPEDEADYYCALYMGSSSYNTVFGGGTHLTVL
notes: VH and VL cloned in frame with mouse IgG1 constant domains; also called 11F02 mIgG1
B3: 10B02 mouse IgG1 (antibody, V domains shown)
VH: QVQLVESGGGLVQPGGSLRVSCAASGFTFSYHYMNWVRQAPGKGLEWVSGISAGGGRTYYADSVKGRFTISRDNAKNTLYLQMNSLNAEDTALYYCARVHGITNDYWGQGTQVTVSS
VL: QSALTQPPSVSGSPGKTVTISCAGTSSDVGYGNYVSWYQQLPGMAPKLLIYEVNKRASGITDRFSGSKSGNTAFLTISGLQSEDEADYYCASYRNSNNWVFGGGTHLTVL
notes: VH and VL cloned in frame with mouse IgG1 constant domains; also called 10B02 mIgG1
B4: 10D02 mouse IgG1 (antibody, V domains shown)
VH: EVQLVESGGGLVQPGGSLRVSCAASGFTFSSYYMSWVRQAPGKGLEWVSGIVTGGGRTHYTDSVKGRFTITRDNAKNTLYLQMNSLRPEDTALYYCARVNGVVTNYDYWGQGTQVTVSS
VL: B3 VL with S2A, A3V, E52D, F74S, Y89F, N95S, S96P, W99V, G103Q
notes: VH and VL cloned in frame with mouse IgG1 constant domains; also called 10D02 mIgG1
B5: 11F12 mouse IgG1 (antibody, V domains shown)
VH: B1 VH with E1Q, L2V, V5Q
VL: HSAVTQPPSVSGTLGKTVTISCAGTSSDVGYGNYVSWYQHLPGTAPKLLIYAVSTRASGVPDRFSGSKSGNTASLTISGLQSEDEGDYYCASYSVRNNVVFGGGTRLTVL
notes: VH and VL cloned in frame with mouse IgG1 constant domains; also called 11F12 mIgG1
B6: 10A06 mouse IgG1 (antibody, V domains shown)
VH: QVQLVESGGGLVQPGGSLRLSCAASGFTFGNYDMSWVRQAPGKGPEWVSDINSGGGSTYYADSVKGRFTISRDNAKNSLLLQMNSLKPEDTAVYYCATGYTGYYYWGQGTQVTVSS
VL: QTVVTQEPSLSVSPGGTVTLTCGLSSGSVTSSNYPAWYQQTPGQAPRALIYSINSRHSGVPDRFSGSISGNKAALTITGAQAEDEADYYCTLYMGTGSNNVVFGGGTHLTVL
notes: VH and VL cloned in frame with mouse IgG1 constant domains; also called 10A06 mIgG1

Changes are numbered by the printed parent chain.

The first experiment concerns the target T1, cynomolgus galectin-10-His, WGS isoform. Description: SPR Biacore T3000, mouse IgG1 captured. The procedure: (§1) The binding capacity of the mouse IgG1 antibody panel to galectin-10 was analysed on Biacore T3000. For this purpose, a capture approach was used, where a fixed concentration (1.5 μg/mL) of the mouse IgG1 clone was captured by polyclonal anti-mouse Fc antibodies immobilized on CM5 Chip to reach a binding signal around 150 RU. Then a serial dilution of human and cynomolgus WGS isoform of galectin-10-His (serial dilution, 1 over 2 from 5 μg/mL) diluted in HBS-EP pH7.4 was injected. Raw data were analysed via BIA evaluation software with a blank subtraction. The kd/KD and Rmax of each mAbs to galectin-10-His was determined using the Fit Kinetics simultaneous ka/kd/Binding with mass transfer/Local Rmax on BIA evaluation software.
Usually Kd stands for the equilibrium constant for the complex coming apart. A word on the koff: it is the first-order rate constant of dissociation. As a reminder, the kon is the rate constant with which the complex forms. Consider B1, for which the dissociation constant (Kd) was determined as 4.4 nM, the koff is 0.000754 s⁻¹ and the on-rate (kon) worked out at 170000 M⁻¹ s⁻¹.
With B2, the Kd worked out at 5 nM, the off-rate constant (koff) is 0.00198 s⁻¹ and the association rate constant (kon) came to 394000 M⁻¹ s⁻¹.
The like results for B3 were, in that order, 0.9 nM, 0.00042 s⁻¹ and 494000 M⁻¹ s⁻¹.
The like results for B4 were, in that order, 1.9 nM, 0.000912 s⁻¹ and 477000 M⁻¹ s⁻¹.

The target of the next experiment is T2, human galectin-10-His. Description: SPR Biacore T3000, mouse IgG1 captured. The procedure: as §1
(In SPR one partner is held on a chip, and binding of the other changes the refractive index at the surface.)
B1: the dissociation constant Kd was found to be 0.9 nM, the off-rate (koff) amounted to 0.00197 s⁻¹ and the kon came out at 2.31e+06 M⁻¹ s⁻¹.
B2: the dissociation constant (Kd) turned out to be 2.2 nM, the off-rate (koff) stood at 0.00489 s⁻¹ and the kon is 2.27e+06 M⁻¹ s⁻¹.
The matching figures for B5: 0.7 nM, 0.00224 s⁻¹ and 3.04e+06 M⁻¹ s⁻¹.
The like results for B3 were, in that order, 1.5 nM, 0.00205 s⁻¹ and 1.42e+06 M⁻¹ s⁻¹.
The matching figures for B4: 1.6 nM, 0.000865 s⁻¹ and 547000 M⁻¹ s⁻¹.
For the molecule B6, the Kd was 0.9 nM, the off-rate (koff) is 0.0101 s⁻¹ and the on-rate constant (kon) was 1.17e+07 M⁻¹ s⁻¹.

The target of the next experiment is T3, recombinant human galectin-10, …. Description: cell-based or functional assay.
Take B1: the “50% crystal dissolution (min), 50 uM” value was 68.3 min and the “90% crystal dissolution (min), 50 uM” value was above 120 min.
Take B5: the “50% crystal dissolution (min), 50 uM” value came to 65.4 min and the “90% crystal dissolution (min), 50 uM” value is above 120 min.
The like results for B3 were, in that order, 73.7 min and above 120 min.
The matching figures for B6: above 120 min and above 120 min.

Another experiment has as its target T1, cynomolgus galectin-10-His, WGS isoform. Kind of experiment: ELISA, coated antigen 0.5 ug/mL. The procedure:
(§2) In a similar setup to that used during the characterization of the scFv-human Fc molecules, the relative binding properties of the 7 mouse IgG1 antibodies were analyzed by ELISA. A Maxisorp plate was coated overnight with 0.5 μg/mL of human or cynomolgus WGS or YRT isoform of galectin-10-His. Then a serial dilution of each clone (from 100 nM, dilution 1/4, 12 points of dilutions) was incubated on coated galectin-10. After several washing steps, detection of the bound mouse IgG1 was carried out with an anti-mouse Fc-HRP antibody (DAMPO, Jackson ImmunoResearch, Catalog 715-035-150). Absorbance was measured at 450 nm (reference at 620 nm) with Tecan instrument. The raw data (OD values) were plotted on GraphPad Prism 7.01. The EC50 values for each antibody, calculated with a non-linear regression (log(agonist) vs. response Variable slope (four parameters)), are shown in the table below. Antibody 1D11 from the previous panel was included for comparison.
One may read the EC50 as the concentration needed to bring the measured effect to its halfway point. For the molecule B1, a half-maximal response (EC50) required 0.03 nM and the OD values came to 3.61 OD.
The matching figures for B2: 0.6 nM and 3.29 OD.
The matching figures for B3: 0.04 nM and 3.7 OD.
The matching figures for B4: 0.14 nM and 3.51 OD.

In the next experiment the target is T4, cynomolgus galectin-10-His, YRT isoform. Kind of experiment: ELISA, coated antigen 0.5 ug/mL. The procedure: as §2
For orientation: An ELISA detects its analyte on a solid surface through an enzyme-linked reagent.
B1 yielded an EC50 of 0.3 nM and an OD values of 2.97 OD.
Regarding B2, the OD values came to 1.7 OD.
Regarding B5, the concentration for a half-maximal effect (EC50) worked out at 0.21 nM and the OD values was 3.35 OD.
The like results for B3 were, in that order, 0.14 nM and 3.36 OD.
B4 registered an OD values of 2.63 OD.
B6 came in with an EC50 of 0.06 nM and an OD values of 3.38 OD.

For another experiment, the target named is T2, human galectin-10-His. Kind of experiment: ELISA, coated antigen 0.5 ug/mL. Here is the method:
as §2
The molecule B1 came in with an EC50 of 1.46 nM and an OD values of 1.5 OD.
The like results for B2 were, in that order, 3.08 nM and 0.9 OD.
As for B5, the EC50 was 4.83 nM and the OD values is 2.7 OD.
The matching figures for B3: 2.28 nM and 1.4 OD.
The matching figures for B4: 3.55 nM and 2.7 OD.
The matching figures for B6: 0.63 nM and 0.3 OD.

In a further experiment the target is T3, recombinant human galectin-10, …. Kind of experiment: cell-based or functional assay. The source holds these as a separate data set.
With B1, the “50% dissolution (min) of CLCs, antibody 50 uM” value was determined as 22.4 min and the “90% dissolution (min) of CLCs, antibody 50 uM” value turned out to be 43.5 min.
The like results for B2 were, in that order, 25.5 min and 57.5 min.
The matching figures for B5: 21.3 min and 42.6 min.
For the molecule B3, the “50% dissolution (min) of CLCs, antibody 50 uM” value amounted to 25.1 min and the “90% dissolution (min) of CLCs, antibody 50 uM” value came out at 47.4 min.
The like results for B4 were, in that order, 26.5 min and 58.6 min.
The like results for B6 were, in that order, 44.5 min and 86.6 min.

Values taken from patent publication US20190367619A1 (ARGENX, published 2019).
